Measurements: publication PMC10397247

Experiments:
Assay in all cases: two-hybrid library CCNG1;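 also: natural log of median RNA to DNA barcode read ratio; higher means stronger binding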
4H2503-bN = biological target: T1, 4H2503-bN
T1 chain: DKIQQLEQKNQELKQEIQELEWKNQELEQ

4H2588-bN = biological target: T2, 4H2588-bN
T2 chain: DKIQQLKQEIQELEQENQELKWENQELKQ

4H2692-bN = biological target: T3, 4H2692-bN
T3 chain: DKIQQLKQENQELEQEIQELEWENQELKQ

4H2717-bN = biological target: T4, 4H2717-bN
T4 chain: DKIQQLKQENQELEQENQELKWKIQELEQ

4H2839-bN = biological target: T5, 4H2839-bN
T5 chain: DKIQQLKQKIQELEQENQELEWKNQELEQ

4H2915-bN = biological target: T6, 4H2915-bN
T6 chain: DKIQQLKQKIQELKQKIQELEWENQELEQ

4H3057-bN = biological target: T7, 4H3057-bN
T7 chain: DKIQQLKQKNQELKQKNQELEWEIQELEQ

4H319-bN = biological target: T8, 4H319-bN
T8 chain: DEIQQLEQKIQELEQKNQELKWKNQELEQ

4H3277-bN = biological target: T9, 4H3277-bN
T9 chain: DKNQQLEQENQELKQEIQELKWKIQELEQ

4H348-bN = biological target: T10, 4H348-bN
T10 chain: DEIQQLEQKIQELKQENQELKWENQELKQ

4H40-bN = biological target: T11, 4H40-bN
T11 chain: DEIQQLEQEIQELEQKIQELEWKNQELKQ

4H477-bN = biological target: T12, 4H477-bN
T12 chain: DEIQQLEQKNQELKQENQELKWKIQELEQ

4H492-bN = biological target: T13, 4H492-bN
T13 chain: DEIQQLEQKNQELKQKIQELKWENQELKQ

4H741-bN = biological target: T14, 4H741-bN
T14 chain: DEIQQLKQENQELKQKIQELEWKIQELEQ

O4-bS = biological target: T15, O4-bS
T15 chain: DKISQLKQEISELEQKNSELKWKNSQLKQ

4H2586-bA = biological target: T16, 4H2586-bA
T16 chain: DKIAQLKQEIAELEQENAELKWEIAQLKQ

4H2627-bA = biological target: T17, 4H2627-bA
T17 chain: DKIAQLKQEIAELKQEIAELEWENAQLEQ

4H2673-bA = biological target: T18, 4H2673-bA
T18 chain: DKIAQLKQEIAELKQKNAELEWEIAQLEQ

4H2702-bA = biological target: T19, 4H2702-bA
T19 chain: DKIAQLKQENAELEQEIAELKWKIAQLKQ

4H3010-bA = biological target: T20, 4H3010-bA
T20 chain: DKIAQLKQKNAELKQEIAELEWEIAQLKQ

4H3112-bA = biological target: T21, 4H3112-bA
T21 chain: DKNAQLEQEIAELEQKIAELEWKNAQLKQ

4H3427-bA = biological target: T22, 4H3427-bA
T22 chain: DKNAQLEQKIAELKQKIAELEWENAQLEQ

4H346-bA = biological target: T23, 4H346-bA
T23 chain: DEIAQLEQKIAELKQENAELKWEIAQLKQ

4H3926-bA = biological target: T24, 4H3926-bA
T24 chain: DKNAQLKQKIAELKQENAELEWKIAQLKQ

4H4073-bA = biological target: T25, 4H4073-bA
T25 chain: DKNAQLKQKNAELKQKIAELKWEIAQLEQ

4H457-bA = biological target: T26, 4H457-bA
T26 chain: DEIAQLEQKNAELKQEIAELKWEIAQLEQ

4H575-bA = biological target: T27, 4H575-bA
T27 chain: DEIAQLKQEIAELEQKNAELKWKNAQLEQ

4H683-bA = biological target: T28, 4H683-bA
T28 chain: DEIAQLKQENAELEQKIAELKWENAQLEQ

4H754-bA = biological target: T29, 4H754-bA
T29 chain: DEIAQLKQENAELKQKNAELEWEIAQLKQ

4H780-bA = biological target: T30, 4H780-bA
T30 chain: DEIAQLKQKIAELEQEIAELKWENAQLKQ

4H797-bA = biological target: T31, 4H797-bA
T31 chain: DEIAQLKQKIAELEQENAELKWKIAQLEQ

4H855-bA = biological target: T32, 4H855-bA
T32 chain: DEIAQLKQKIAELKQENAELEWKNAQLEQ

4H918-bA = biological target: T33, 4H918-bA
T33 chain: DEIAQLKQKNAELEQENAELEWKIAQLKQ

4H953-bA = biological target: T34, 4H953-bA
T34 chain: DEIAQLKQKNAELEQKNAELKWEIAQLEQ

4H968-bA = biological target: T35, 4H968-bA
T35 chain: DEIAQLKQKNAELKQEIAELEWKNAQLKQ

O2-bN = biological target: T36, O2-bN
T36 chain: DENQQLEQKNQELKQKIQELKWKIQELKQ

4H48-bN = biological target: T37, 4H48-bN
T37 chain: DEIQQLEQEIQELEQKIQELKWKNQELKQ

4H491-bN = biological target: T38, 4H491-bN
T38 chain: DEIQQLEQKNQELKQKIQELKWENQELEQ

4H2518-bA = biological target: T39, 4H2518-bA
T39 chain: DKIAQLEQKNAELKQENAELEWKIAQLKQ

4H2585-bA = biological target: T40, 4H2585-bA
T40 chain: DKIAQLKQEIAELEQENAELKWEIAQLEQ

4H264-bA = biological target: T41, 4H264-bA
T41 chain: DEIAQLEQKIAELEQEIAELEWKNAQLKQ

4H2760-bA = biological target: T42, 4H2760-bA
T42 chain: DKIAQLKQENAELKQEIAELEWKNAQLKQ

4H2859-bA = biological target: T43, 4H2859-bA
T43 chain: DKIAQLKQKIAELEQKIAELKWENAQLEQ

4H2931-bA = biological target: T44, 4H2931-bA
T44 chain: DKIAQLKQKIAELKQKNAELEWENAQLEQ

4H3041-bA = biological target: T45, 4H3041-bA
T45 chain: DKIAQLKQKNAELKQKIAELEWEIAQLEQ

4H3297-bA = biological target: T46, 4H3297-bA
T46 chain: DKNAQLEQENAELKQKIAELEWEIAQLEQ

4H3364-bA = biological target: T47, 4H3364-bA
T47 chain: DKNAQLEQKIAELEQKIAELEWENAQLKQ

4H3381-bA = biological target: T48, 4H3381-bA
T48 chain: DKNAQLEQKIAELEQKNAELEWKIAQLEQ

4H349-bA = biological target: T49, 4H349-bA
T49 chain: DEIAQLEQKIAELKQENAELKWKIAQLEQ

4H56-bA = biological target: T50, 4H56-bA
T50 chain: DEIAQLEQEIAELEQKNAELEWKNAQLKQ

4H730-bA = biological target: T51, 4H730-bA
T51 chain: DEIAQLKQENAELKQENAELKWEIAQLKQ

4H796-bA = biological target: T52, 4H796-bA
T52 chain: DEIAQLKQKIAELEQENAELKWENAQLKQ

4H932-bA = biological target: T53, 4H932-bA
T53 chain: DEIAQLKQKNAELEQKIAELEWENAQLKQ

4H949-bA = biological target: T54, 4H949-bA
T54 chain: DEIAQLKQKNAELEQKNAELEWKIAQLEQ

O8-bN = biological target: T55, O8-bN
T55 chain: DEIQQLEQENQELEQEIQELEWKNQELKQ

P4A = biological target: T56, P4A
T56 chain: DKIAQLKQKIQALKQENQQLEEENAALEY

4H2444-bA = biological target: T57, 4H2444-bA
T57 chain: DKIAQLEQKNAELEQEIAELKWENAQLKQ

4H492-bA = biological target: T58, 4H492-bA
T58 chain: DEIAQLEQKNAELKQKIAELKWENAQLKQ

B1: 4H2503-bN (peptide)
chain: DKIQQLEQKNQELKQEIQELEWKNQELEQ
interaction score (4H2503-bN): -0.645
interaction score (4H2588-bN): 0.453
interaction score (4H2692-bN): -2.06
interaction score (4H2717-bN): -1.42
interaction score (4H2839-bN): -0.436
interaction score (4H2915-bN): -0.299
interaction score (4H3057-bN): -0.657
interaction score (4H319-bN): -0.708
interaction score (4H3277-bN): 0.0524
interaction score (4H348-bN): 0.419
interaction score (4H40-bN): -0.263
interaction score (4H477-bN): -0.639
interaction score (4H492-bN): 0.186
interaction score (4H741-bN): -0.327
interaction score (O4-bS): -1.2

B2: 4H2586-bA (peptide)
chain: DKIAQLKQEIAELEQENAELKWEIAQLKQ
interaction score (4H2586-bA): 1.48
interaction score (4H2627-bA): 0.292
interaction score (4H2673-bA): 0.53
interaction score (4H2702-bA): 0.531
interaction score (4H3010-bA): 1.28
interaction score (4H3112-bA): -1
interaction score (4H3427-bA): -0.911
interaction score (4H346-bA): 0.976
interaction score (4H3926-bA): 1.9
interaction score (4H4073-bA): 0.255
interaction score (4H457-bA): 0.765
interaction score (4H575-bA): -0.515
interaction score (4H683-bA): 0.537
interaction score (4H754-bA): -1.06
interaction score (4H780-bA): -1.17
interaction score (4H797-bA): 0.763
interaction score (4H855-bA): 1.54
interaction score (4H918-bA): -0.499
interaction score (4H953-bA): 1.17
interaction score (4H968-bA): -1.91
interaction score (O2-bN): -0.327

B3: 4H48-bN (peptide)
chain: DEIQQLEQEIQELEQKIQELKWKNQELKQ
interaction score (4H48-bN): 1.04
interaction score (4H491-bN): -0.799

B4: 4H2518-bA (peptide)
chain: DKIAQLEQKNAELKQENAELEWKIAQLKQ
interaction score (4H2518-bA): 0.343
interaction score (4H2585-bA): -0.589
interaction score (4H264-bA): -1
interaction score (4H2760-bA): -0.635
interaction score (4H2859-bA): -0.00645
interaction score (4H2931-bA): -0.288
interaction score (4H3041-bA): 0.486
interaction score (4H3297-bA): -0.628
interaction score (4H3364-bA): -0.361
interaction score (4H3381-bA): -0.773
interaction score (4H349-bA): -0.372
interaction score (4H56-bA): -1.52
interaction score (4H730-bA): -0.626
interaction score (4H796-bA): -1.33
interaction score (4H932-bA): -1.08
interaction score (4H949-bA): -0.976
interaction score (O8-bN): -2.05
interaction score (P4A): -1.32

B5: 4H2444-bA (peptide)
chain: DKIAQLEQKNAELEQEIAELKWENAQLKQ
interaction score (4H2444-bA): 1.3
interaction score (4H2518-bA): -0.678
interaction score (4H2585-bA): 0.675
interaction score (4H264-bA): 0.179
interaction score (4H2760-bA): 1.15
interaction score (4H2859-bA): -0.0526
interaction score (4H2931-bA): 0.114
interaction score (4H3041-bA): 0.922
interaction score (4H3297-bA): 0.252
interaction score (4H3364-bA): -0.57
interaction score (4H3381-bA): -0.537
interaction score (4H349-bA): -0.457
interaction score (4H492-bA): 1.66
interaction score (4H56-bA): -1.91
interaction score (4H730-bA): -0.297
interaction score (4H796-bA): -0.412
interaction score (4H932-bA): -1.36
interaction score (4H949-bA): -0.993
